# Paper PMC10415184, “A placental model of SARS-CoV-2 infection reveals ACE2-dependent susceptibility and differentiation impairment in syncytiotrophoblasts” (Nature Cell Biology, 2023)
# Target: recombinant human ACE2 (Homo sapiens, UniProt Q9BYF1)
# Sequence (Q9BYF1 18-805): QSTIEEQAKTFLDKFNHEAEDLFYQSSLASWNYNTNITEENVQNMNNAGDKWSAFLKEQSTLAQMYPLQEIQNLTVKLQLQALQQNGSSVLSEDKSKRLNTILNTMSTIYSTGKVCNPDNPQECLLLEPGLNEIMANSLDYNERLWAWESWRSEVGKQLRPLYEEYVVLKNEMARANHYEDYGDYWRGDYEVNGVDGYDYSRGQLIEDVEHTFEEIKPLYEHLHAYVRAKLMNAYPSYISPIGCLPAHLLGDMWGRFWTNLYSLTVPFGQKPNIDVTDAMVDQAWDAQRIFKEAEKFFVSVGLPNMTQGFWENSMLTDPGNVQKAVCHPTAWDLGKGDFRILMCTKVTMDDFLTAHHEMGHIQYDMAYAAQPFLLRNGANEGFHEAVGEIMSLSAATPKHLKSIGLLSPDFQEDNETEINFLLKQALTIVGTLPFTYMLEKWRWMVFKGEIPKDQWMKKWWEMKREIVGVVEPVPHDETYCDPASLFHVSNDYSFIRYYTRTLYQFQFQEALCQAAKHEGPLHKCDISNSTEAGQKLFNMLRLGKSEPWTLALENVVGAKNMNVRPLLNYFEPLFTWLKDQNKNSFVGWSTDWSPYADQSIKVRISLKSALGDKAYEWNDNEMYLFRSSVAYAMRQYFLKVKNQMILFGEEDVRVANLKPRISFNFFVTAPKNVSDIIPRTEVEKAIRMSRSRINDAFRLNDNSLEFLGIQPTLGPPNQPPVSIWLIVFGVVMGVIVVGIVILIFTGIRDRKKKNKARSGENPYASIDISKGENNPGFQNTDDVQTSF
row,Binder,binding result
1,"WCSL IgG1 (sheet row 12) (antibody, V domains shown) VH: EVQLLESGGGLVQPGGSLRLSCAASGFTFSSYWMHWVRQAPGKGLEWVSAISGSGGSTYYADSVKGRFTISRDNSKNTLYLQMNSLRAEDTAVYYCARDTPLYYDFWSGDAFDIWGQGTMVTVSS VL: not shown",binds
2,"WCSL IgG1 (sheet row 4) (antibody, V domains shown) VH: EVQLLESGGGLVQPGGSLRLSCAASGFTFRNYAMSWVRQAPGKGLEWVSAISGSGSGTYYADSVKGRFTISRDNSKNTLYLQMNSLRAEDTAVYYCAKEGARIHWGQGTLVTVSS VL: not shown",binds
3,"WCSL IgG1 (sheet row 9) (antibody, V domains shown) VH: EVQLVESGGGLVQPGGSLRLSCAASGFTFRNYAMSWVRQAPGKGLEWVSAISGSGSGTYYADSVKGRFTISRDNSKNTLYLQMNSLRAEDTAVYYCAKEGARIHWGQGTLVTVSS VL: DIVMTQSPLSLSVTPGEPASISCRSSQSLLHSNGNNYFDWYLQKPGQAPQLLIYLGSNRASGVPDRFSGSGSGTDFTLKISRVEAEDVGVYYCMQALQTPWTFGQGTKVEIK",binds
4,"WCSL IgG1 (sheet row 19) (antibody, V domains shown) VH: EVQLVESGGGVVQPGRSLRLSCAASGFTFSNYAMSWVRQAPGKGLEWVSGISGSGGSTYYADSVKGRFTISRDNSKNTLYLQMNSLRAEDTAVYYCARDRGYSYAAFQHWGQGTLVTVSS VL: not shown",binds
5,"WCSL IgG1 (sheet row 16) (antibody, V domains shown) VH: QITLKESGPTLVKPTQTLTLTCTFSGFSLSTSGVGVGWIRQPPGKALEWLALIYWDDDKRYSPSLKSRLTITRDTSKNLVVLTMINMDPVDTATYYCAHSHSTTWGAFDYWGQGTLVTVSS VL: DIVMTQSPDSLAVSLGERATINCKSSRSVLYTYNNKDDVAWYQQKPGQPPKLLIYWASTRESGVPDRFSGSGSGTDFTLTISSLQAEDVAVYYCQQYYSAPLTFGGGPRWRSN",binds
6,"WCSL IgG1 (sheet row 10) (antibody, V domains shown) VH: EVQLVESGGGLVKPGGSLRLSCAASGFTFSSYSMNWVRQAPGKGLEWVSSISSSSGYIYYSDSLKGRFTISRDNAKNSLYLQMNSLTAEDTAVYYCAREGHIASRGWGWFDSWGQGTLVTVSS VL: DIVMTQSPVSLAVTPGESASISCRSSQSLLHRNGYNYVDWYLQKPGQSPQLLIYLGSTRASGVPDRFSGSGSGTDFSLQITRVEAEDVGVYYCMQPLEIPLTFGGGTKLEIK",binds
7,"WCSL IgG1 (sheet row 8) (antibody, V domains shown) VH: QLQLQESGPGLVKPSETLSLTCTVSGGSISSSSYYWGWIRQPPGKGLEWIGSIYYSGSTYYNPSLKSRVTISVDTSKNQFSLKLSSVTAADTAVYYCASSPRNWGSPRFAFDIWGQGTMVTVSS VL: QSVLTQPPSVSGAPGQRVTISCTGTTSNIGAGYDVHWYQQLPGTAPKLLIFGNTNRPSGVPERFSASRSGTSASLAITGLQTTDEADYYCQSYDNSLSGSRVFGGGTKLTVL",binds
8,"WCSL IgG1 (sheet row 6) (antibody, V domains shown) VH: QVQLVESGGGLIQPGGSLRLSCAASGFLVSSKYMSWVRQAPGKGLEWVSSIYSGGDTYYADSVKGRFTISRDNSKNTLSLQMHSLKADDTAVYYCARGATGYSDSWYENWGQGTLVTVSS VL: DIVMTQSPLSLPVTPGEPASISCRPSQSLLHSNGNNYLDWYLQKPGQSPQLLIYLGSNRASGVPDRFSGSGSGTDFTLRISSVEAEDVGVYYCMQALQNPLTFGQGTRLEIK",binds
9,"WCSL IgG1 (sheet row 14) (antibody, V domains shown) VH: VESGGGLVQPGGSLRLSCVASGAASGFTFSTESMNWVRQAPGKGLEWVSYIYPSGGGAYYADSVQGRFTVSRDNAKNSVYLQMNSLRVEDTAVYYCVRHQYGDYPSWGQGTPVTVSS VL: DIVMTQSPLSLSVTPGEPASISCRSSQSLLHSNGFNYFDWYLQKPGQSPQLLIYLGSNRASGVPDRFSGSGSGTDFTLKISRVEAEDVGVYYCMQGLQIPYTFGQGTKLEIK",binds
10,"WCSL IgG1 (sheet row 18) (antibody, V domains shown) VH: EVQLVESGGGVVQPGRSLRLSCAASGFTFSSYGMHWVRQAPGKGLEWVSYIYPSGGGAYYADSVQGRFTVSRDNAKNSVYLQMNSLRVEDTAVYYCTRDFWSAPIPMWGQGTLVTVSS VL: DIVMTQSPVSLPVTPGEPASISCRSSQSLLHSNGHNYLNWYLQKPGQSPHLLIYLGSNRASGVPDRFSGSGSGTDFTLNISRVEAEDVGVYYCMQALQTPWTFGQGTKVEIK",binds
11,"WCSL IgG1 (sheet row 13) (antibody, V domains shown) VH: EVQLVESGGGLVKPGGSLRLSCAASGFTFSSYSMNWVRQAPGKGLEWVSSISSSSSYIYYADSVKGRFTISRDNAKNSLYLQMNSLRAEDTAVYYCARATTVVTPGYFQHWGQGTLVTVSS VL: EIVLTQSPATLSLSPGQRATLSCRASQSVSSSLAWYQQKPGQAPRLLIYDASDRATDIPARFSGSGSGTDFTLTISSLEPEDFAVYYCQQRTNWPPLTFGGGTKVEIK",binds
